The source of these data is patent US8445444B2, “Compositions and methods for diagnosing, treating, and preventing prostate conditions” (Phigenix, Inc., priority 2007, dated 2013).

What all share (type): cell-based, human
Data set [1] has as its system DU145. The data set is described as follows: MTT cell viability assay. As to the method: (§1) MTT Cell Viability Assay: To examine the effects of DEFB1 on cell growth, metabolic 3-[4,5-dimethylthiazol-2-yl]-2,5 diphenyl tetrazolium bromide (MTT) assays were performed. PC3, DU145 and LNCaP cells co-transfected with pVgRXR plasmid and pIND/DEFB1 construct or empty pIND vector were seeded onto a 96-well plate at 1-5×10^3 cells per well. Twenty-four hours after seeding, fresh growth medium was added containing 10 μM Ponasterone A daily to induce DEFB1 expression for 24-, 48- and 72 hours after which the MTT assay was performed according to the manufacturer's instructions (Promega). Reactions were performed three times in triplicate.
(§2) MTT Cytotoxicity Assay: DU145, PC3 and LNCaP cells (1×105) were transfected with 0.5 μg of the PAX2 siRNA pool or control siRNA pool using Codebreaker transfection reagent according to the manufacturer's protocol (Promega). Next, cell suspensions were diluted and seeded onto a 96-well plate at 1-5×10^3 cells per well and allowed to grow for 2-, 4- or 6 days. After culture, cell viability was determined by measuring the conversion of 3-[4,5-dimethylthiazol-2-yl]-2,5 diphenyl tetrazolium bromide, MTT (Promega), to a colored formazan product. Absorbance was read at 540 nm on a scanning multiwell spectrophotometer.
(§3) MTT cell viability assay: To examine the effects of hBD-1 on cell growth, metabolic 3-[4,5-dimethylthiazol-2-yl]-2,5-diphenyl tetrazolium bromide (MTT) assay was performed. DU145, LNCaP, PC3 and PC3/AR+ cells co-transfected with pvgRXR plasmid and pIND/hBD-1 construct or control pvgRXR plasmid were seeded onto a 96-well plate at 1-5×10^3 cells per well. Twenty-four hours after seeding, fresh growth medium was added containing 10 μM Pon A daily to induce hBD-1 expression for 24, 48 and 72 h after which the MTT assay was performed according to the manufacturer's instructions (Promega). Reactions were performed three times in triplicate.
(§4) MTT cytotoxicity assay: DU145, PC3 and LNCaP cell suspensions were diluted and seeded onto a 96-well plate at 1-5×10^3 cells per well. Next the cells were transfected, according to the manufacturer's protocol (Promega), with 5 pg/cell of the PAX2 siRNA pool, control siRNA pool, or the Codebreaker transfection reagent alone. All cells were allowed to grow for 2-, 4- or 6 days after treatment. Cell viability was then determined by measuring the conversion of 3-[4,5-dimethylthiazol-2-yl]-2,5 diphenyl tetrazolium bromide, MTT (Promega) to a colored formazan product. Absorbance was read at 540 nm on a scanning multi-well spectrophotometer.

The test system of data set [2] is LNCaP. The experiment in a line: MTT cell viability assay. Conditions: DEFB1 (hBD-1) induction 24-72 h. On the procedure:
as §1, §2, §3, §4

The subject of data set [3] is PC3. The experiment in a line: MTT cell viability assay. On the procedure:
as §1, §2, §3, §4

Data set [4] deals with PC3/AR+. The data set is described as follows: MTT cell viability assay. The settings on record: PC3/AR+ compared with PC3. As to the method: as §3
Data set [5] concerns PC3. The data set is described as follows: Pan-caspase detection (FAM-VAD-FMK, confocal). The settings on record: PC3, 24 h DEFB1 induction. On the procedure: Detection of caspase activity in the prostate cancer cell lines was performed using APO LOGIX™ Carboxyfluorescin Caspase detection kit (Cell Technology, Mountain View, Calif.). Active caspases were detected through the use of a FAM-VAD-FMK inhibitor that irreversibly binds to active caspases. Briefly, DU 145 and PC3 cells (1.5-3×10^5) containing the DEFB1 expression system were plated in 35 mm glass bottom microwell dishes (Matek, Ashland, Mass.) and treated for 24 hours with media only or with media containing PonA as previously described. Next, 10 μl of a 30× working dilution of carboxyfluorescein labeled peptide fluoromethyl ketone (FAM-VAD-FMK) was added to 300 μl of media and added to each 35 mm dish. Cells were then incubated for 1 hour at 37° C. under 5% CO2. […] The fluorescent signal was analyzed using a confocal microscope (Zeiss LSM 5 Pascal) and a 63×DIC oil lens with a Vario 2 RGB Laser Scanning Module.
Pan-Caspase Detection: Detection of caspase activity in the prostate cancer cell lines was performed using APO LOGIX™ Carboxyfluorescin Caspase detection kit (Cell Technology, Mountain View, Calif.). Active caspases were detected through the use of a FAM-VAD-FMK inhibitor that irreversibly binds to active caspases. […] The fluorescent signal was analyzed using a confocal microscope (Zeiss LSM 5 Pascal) and a 63×DIC oil lens with a Vario 2 RGB Laser Scanning Module. […]

Data set [6] deals with LNCaP. The experiment in a line: Pan-caspase detection (FAM-VAD-FMK, confocal). Conditions: 24 h DEFB1 (hBD-1) induction.

“Also recorded” adds a separate entry of the source.

Consider “DEFB1: human beta defensin-1 expressed from the ecdysone inducible pIND/DEFB1 construct, induced with Ponasterone A (DHYNCVSSGGQCLYSACPIFTKIQGTCYRGKAKCCK; UniProt P60022 33-68, looked up)”, for which the relative cell viability is listed as 72% in data set [1] (DU145, 24 h DEFB1 (hBD-1) induction, 10 μM Ponasterone A); 49% in data set [1] (DU145, 48 h DEFB1 (hBD-1) induction); 44% in data set [1] (DU145, 72 h DEFB1 (hBD-1) induction); 56% in data set [3] (PC3, 24 h DEFB1 (hBD-1) induction); 37% in data set [3] (PC3, 48 h DEFB1 (hBD-1) induction); 29% in data set [3] (PC3, 72 h DEFB1 (hBD-1) induction). Moreover, in data set [2], the “effect on cell viability” value was “no significant effect”. Moreover, the “hBD-1 cytotoxicity with ectopic AR expression” value in data set [4] is “no difference between PC3/AR+ and PC3 cells”. The caspase activity result is “revealed caspase activity; also recorded: green staining” in data set [5], “No caspase activity was detected; also recorded: no green staining” in data set [6] and “no green staining” in data set [6] (listed as hBD-1).
